Columns and labels:
[1] = target: T1, CD40 (Acro Biosystems), coated on plate (UniProt P25942 21-193); assay: ELISA, CD40 coated at 1 µg/ml, detection with anti-human IgG-Fc-peroxidase
T1 construct: Bought antigen; the construct is not described; also called target antigen
Description: (§1) The affinities of the exemplary monovalent antibodies, in the prodrug and activated forms, were measured by an ELISA assay. Briefly, target antigens, CD40 or CTLA4 (both from Acro Biosystems), were coated at 1 μg/ml in a Nunc MaxiSorp plate (ThermoFisher) for 1 hour and blocked with SuperBlock (ThermoFisher). The exemplary monovalent antibodies, whether intact or matriptase-activated, were added at concentrations ranging from 0.001 to 1000 nM, as indicated in the x-axis of each plot shown in FIG. 4, and incubated for 1 hour at room temperature. Plates were washed 3 times using PBS supplemented with 0.05% Tween-20 (PBS-T). Goat anti-human IgG-Fc-peroxidase conjugate antibody (Sigma) was used at 1:10,000 dilution in PBS-T and incubated for an additional hour. Plates were washed 3 times using PBS-T, followed by development using TMB substrate (ThermoFisher), and neutralizing with 0.1 M sulfuric acid. The resulting colorimetric assay was measured at 450 nm using SpectraMax spectrophotometer (Molecular Devices).
(§2) Differential binding of the inducible monovalent antibodies in their prodrug and active forms was determined by comparing the apparent KD of the untreated (prodrug) or the protease-treated (active) forms of the inducible monovalent antibodies to their target antigens in an ELISA assay (results shown in FIG. 4).

[2] = target: T2, CTLA4 (Acro Biosystems), coated on plate (UniProt P16410 37-162, limits assumed); assay: ELISA, CTLA4 coated at 1 µg/ml, detection with anti-human IgG-Fc-peroxidase
T2 construct: Bought antigen; the construct is not described; also called target antigen
T2 sequence (looked up): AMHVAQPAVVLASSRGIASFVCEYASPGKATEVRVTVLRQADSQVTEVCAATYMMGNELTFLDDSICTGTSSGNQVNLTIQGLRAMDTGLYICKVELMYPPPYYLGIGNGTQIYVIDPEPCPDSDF
Description: as §1, §2

T1 sequence (P25942 21-193 limits assumed): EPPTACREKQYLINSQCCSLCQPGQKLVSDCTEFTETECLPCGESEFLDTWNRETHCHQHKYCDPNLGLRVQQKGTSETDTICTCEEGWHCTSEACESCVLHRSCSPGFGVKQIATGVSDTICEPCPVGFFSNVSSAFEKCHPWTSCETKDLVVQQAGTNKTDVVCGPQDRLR

B1: Dace-ProMonoMab, matriptase-treated (active form) (antibody, V domains shown)
VH: EVQLVESGGGLVQPGGSLRLSCAASGYSFTGYYIHWVRQAPGKGLEWVARVIPNAGGTSYNQKFKGRFTLSVDNSKNTAYLQMNSLRAEDTAVYYCAREGIYWWGQGTLVTVSS
VL: DIQMTQSPSSLSASVGDRVTITCRSSQSLVHSNGNTFLHWYQQKPGKAPKLLIYTVSNRFSGVPSRFSGSGSGTDFTLTISSLQPEDFATYFCSQTTHVPWTFGQGTKVEIKG
notes: Same chains as the prodrug, treated overnight with 40 nM recombinant human matriptase; also called protease-treated
fold difference in apparent affinity (apparent KD), matriptase-treated against untreated prodrug [1]: 5.1 fold

B2: Treme-ProMonoMab, matriptase-treated (active form) (antibody, V domains shown)
VH: QVQLVESGGGVVQPGRSLRLSCAASGFTFSSYGMHWVRQAPGKGLEWVAVIWYDGSNKYYADSVKGRFTISRDNSKNTLYLQMNSLRAEDTAVYYCARDPRGATLYYYYYGMDVWGQGTTVTVSS
VL: DIQMTQSPSSLSASVGDRVTITCRASQSINSYLDWYQQKPGKAPKLLIYAASSLQSGVPSRFSGSGSGTDFTLTISSLQPEDFATYYCQQYYSTPFTFGPGTKVEIKG
notes: as for B1
fold difference in apparent affinity (apparent KD), matriptase-treated against untreated prodrug [2]: 5.3 fold

B3: Seli-ProMonoMab, matriptase-treated (active form) (antibody, V domains shown)
VH: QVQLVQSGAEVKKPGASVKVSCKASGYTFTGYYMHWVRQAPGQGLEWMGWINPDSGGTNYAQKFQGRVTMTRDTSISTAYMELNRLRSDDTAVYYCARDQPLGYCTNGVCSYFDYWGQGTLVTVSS
VL: DIQMTQSPSSVSASVGDRVTITCRASQGIYSWLAWYQQKPGKAPNLLIYTASTLQSGVPSRFSGSGSGTDFTLTISSLQPEDFATYYCQQANIFPLTFGGGTKVEIKG
notes: Same chains as the prodrug, treated overnight with 40 nM recombinant human matriptase
fold difference in apparent affinity (apparent KD), matriptase-treated against untreated prodrug [1]: 2 fold

— patent US20200148771A1 (HARPOON THERAPEUTICS, published 2020)
